Data as given in patent US20220143136A1, “USE OF ANNEXINS IN PREVENTING AND TREATING MUSCLE MEMBRANE INJURY” (NORTHWESTERN UNIVERSITY, priority 2018, published 2022).

Experiments:
wildtype myofibers = test: Laser injury FM 4-64 uptake, E coli versus HEK cell produced rANXA6; format: cell-based, mouse; settings: 13 μg/ml and 130 μg/ml; vs BSA control
Description: Myofiber isolation, laser injury, and dye measurement. For recombinant myofibers studies, myofibers were isolated from wildtype mice. Myofibers were incubated in Ringer's media with 13 μg/ml or 130 μg/ml human recombinant annexin, E coli or HEK cell produced. Bovine serum albumin (BSA) was used as a negative control. FM 4-64 ([…]) was added to the myofibers just prior to imaging. Fibers were subjected to laser-induced damage at room temperature using the Nikon A1R-MP multiphoton microscope. Imaging was performed using a 25×1.1 NA objective directed by the NIS-Elements AR imaging software. FM 4-64 was excited using a 920 nm wavelength laser and emission wavelengths of 575 nm and 629 nm were collected, respectively. To induce laser damage on isolated myofibers, a diffraction limited spot (diameter approximately 410 nm) was created on the lateral membrane of the myofiber using a 920 nm wavelength laser at 10-15% laser power for 1 second. FM 4-64 area was measured using FIJI from a single slice near the middle of the z-stack. Myofiber quality control was based on a number of characteristics including using adherent myofibers with intact sarcomere structure. Myofibers appeared devoid of tears or ruptures induced during the isolation protocol. The region of the myofiber selected for damage was linear and not located on a nucleus or neuromuscular junction.
Statistical analyses were performed with Prism (Graphpad, La Jolla, Calif.). Comparisons relied on ANOVA (1way ANOVA for 1 variable). P-values of less than or equal to 0.05 were considered significant. Error bars represent +/−standard error of the mean (SEM).

myofibers = test: Annexin repair cap formation after laser injury at multiple Ca2+ concentrations; format: cell-based, mouse; settings: fluorescently tagged annexin expressed in myofibers; Ca2+ 0-2 mM; modified Hill equation
Description: (§1) Electroporation, myofiber isolation, laser injury, cap and vesicle measurement. Flexor digitorum brevis (FDB) fibers were transfected with endo-free plasmid DNA by in vivo electroporation. Methods were described previously in (Demonbreun and McNally, 2015; Demonbreun et al., 2016b; DiFranco et al., 2009). Z-stack projections were acquired from consecutive acquisitions after the final time-lapse frame, approximately 4 minutes post damage, with a […] step size between slices. Z-stack renderings were constructed in FIJI. Measurement of the cap area and feret diameter were conducted from a single slice near the middle of the z-stack using FIJI imaging tools. Fibers expressing similar levels of tagged or GCaMP5G protein were compared. GCaMP5G Ca^2+ fluorescence was measured from the acquired timelapse images, using a standard rectangular ROI, placed inside the myofiber below the site of damage using FIJI. Fluorescence was expressed as F/F0. External vesicle number and GCaMP5G area were measured from endpoint z-stacks and max projection images using FIJI. Vesicles were considered external if they were found outside the sarcolemma assessed in brightfield and fluorescent channels. All measurements were acquired from myofibers isolated from at least n≥3 mice, n≥3 myofibers per mouse.
Calcium kinetics. FDB muscle was electroporated and isolated as described above. Myofibers were damaged in Ringers solution with Ca^2+ concentrations of 2 mM, 1 mM, 0.5 mM, 0.25 mM, 0.175 mM, 0.1 mM, 0.050 mM, and 0 mM. EDTA was added as a Ca^2+ chelating agent in only in the 0 mM Ca^2+ Ringers. Myofibers were isolated directly into 2 mM, 1 mM and 0.5 mM Ringers for those experiments respectively. For experiments using less than 0.5 mM Ca^2+ myofibers were isolated in 0.5 mM Ca^2+ Ringers and then diluted with 0 mM EDTA-free Ca^2+ Ringers. For 0 mM experiments, myofibers were isolated in 0.5 mM Ca^2+ Ringers and then replaced with 0 mM Ca^2++EDTA Ringers just prior to imaging. Co-electroporation of wildtype annexin+wildtype annexin constructs was performed in one mouse foot, while the contralateral foot was co-electroporated with wildtype annexin+mutant annexin. All measurements were acquired from myofibers isolated from at least n≥2 mice, n≥3 myofibers per mouse at each Ca^2+ concentration. Area-Ca^2+ curves were fitted with a Hill Curve at Ca^2+ concentrations ranging from 0-2 mM. Kinetic parameters were calculated using Prism Graphpad.
as §1, with “(Demonbreun A R, Quattrocelli M, Barefield D Y, Allen M V, Swanson K E,” for “(Demonbreun”, “McNally E M. An actin-dependent annexin complex mediates plasma membrane repair in muscle. The Journal of cell biology. 2016; 213(6):705-18; Demonbreun A R, and McNally E M. DNA Electroporation, Isolation and Imaging of Myofibers. Journal of visualized experiments: JoVE.” for “McNally,”, “106(106):e53551;” for “Demonbreun et al., 2016b;”, “M, Quinonez M, Capote J, and Vergara J. DNA transfection of mammalian skeletal muscles using in vivo electroporation. Journal of visualized experiments: JoVE. 2009; 32(32)).” for “et al., 2009).”, “Vesicles were considered external if they were found outside the sarcolemma assessed in brightfield and fluorescent channels. All measurements were acquired from myofibers isolated from at least n≥3 mice, n≥3 myofibers per mouse.” left out

B1: recombinant annexin A6: recombinant human annexin A6 protein with C-terminal HIS tag (5186-A6-050, R&D systems); mouse protein from Northwestern core in one cohort (protein, UniProt P08133 2-673, looked up)
Annexin A6: AKPAQGAKYRGSIHDFPGFDPNQDAEALYTAMKGFGSDKEAILDIITSRSNRQRQEVCQSYKSLYGKDLIADLKYELTGKFERLIVGLMRPPAYCDAKEIKDAISGIGTDEKCLIEILASRTNEQMHQLVAAYKDAYERDLEADIIGDTSGHFQKMLVVLLQGTREEDDVVSEDLVQQDVQDLYEAGELKWGTDEAQFIYILGNRSKQHLRLVFDEYLKTTGKPIEASIRGELSGDFEKLMLAVVKCIRSTPEYFAERLFKAMKGLGTRDNTLIRIMVSRSELDMLDIREIFRTKYEKSLYSMIKNDTSGEYKKTLLKLSGGDDDAAGQFFPEAAQVAYQMWELSAVARVELKGTVRPANDFNPDADAKALRKAMKGLGTDEDTIIDIITHRSNVQRQQIRQTFKSHFGRDLMTDLKSEISGDLARLILGLMMPPAHYDAKQLKKAMEGAGTDEKALIEILATRTNAEIRAINEAYKEDYHKSLEDALSSDTSGHFRRILISLATGHREEGGENLDQAREDAQVAAEILEIADTPSGDKTSLETRFMTILCTRSYPHLRRVFQEFIKMTNYDVEHTIKKEMSGDVRDAFVAIVQSVKNKPLFFADKLYKSMKGAGTDEKTLTRIMVSRSEIDLLNIRREFIEKYDKSLHQAIEGDTSGDFLKALLALCGGED
modifications: C-terminal His tag
notes: recombinant human annexin A6 protein with C-terminal HIS tag (5186-A6-050, R&D systems); mouse protein from Northwestern core in one cohort
For B1, the “FM 4-64 dye uptake after laser injury” value (wildtype myofibers) was “reduction”.

B2: annexin A6: annexin A6 with carboxyl-terminal turboGFP or tdTomato tag, expressed from plasmid electroporated into myofibers (protein, UniProt P14824 2-673, looked up)
Annexin A6: AKIAQGAMYRGSVHDFPEFDANQDAEALYTAMKGFGSDKESILELITSRSNKQRQEICQNYKSLYGKDLIEDLKYELTGKFERLIVNLMRPLAYCDAKEIKDAISGVGTDEKCLIEILASRTNEQMHQLVAAYKDAYERDLESDIIGDTSGHFQKMLVVLLQGTRENDDVVSEDLVQQDVQDLYEAGELKWGTDEAQFIYILGNRSKQHLRLVFDEYLKTTGKPIEASIRGELSGDFEKLMLAVVKCIRSTPEYFAERLFKAMKGLGTRDNTLIRIMVSRSELDMLDIREIFRTKYEKSLYSMIKNDTSGEYKKALLKLCGGDDDAAGQFFPEAAQVAYQMWELSAVSRVELKGTVCAANDFNPDADAKALRKAMKGIGTDEATIIDIVTHRSNAQRQQIRQTFKSHFGRDLMADLKSEISGDLARLILGLMMPPAHYDAKQLKKAMEGAGTDEKTLIEILATRTNAEIRAINEAYKEDYHKSLEDALSSDTSGHFRRILISLATGNREEGGENRDQAQEDAQVAAEILEIADTPSGDKTSLETRFMTVLCTRSYPHLRRVFQEFIKKTNYDIEHVIKKEMSGDVKDAFVAIVQSVKNKPLFFADKLYKSMKGAGTDEKTLTRVMVSRSEIDLLNIRREFIEKYDKSLHQAIEGDTSGDFMKALLALCGGED
modifications: C-terminal turboGFP or tdTomato tag
notes: annexin A6 with carboxyl-terminal turboGFP or tdTomato tag, expressed from plasmid electroporated into myofibers
With B2 the “Km1/2 (repair cap area as a function of Ca2+ concentration)” value (myofibers) was 0.12 mM.
